Here are results for two molecules from patent US20230018670A1 (WIN THERAPEUTICS, published 2023).

Several values for one entry are separate records, joined by “and”; a condition that tells them apart may be missing. Identical values can stand only once.

Experiment [1] concerns the target T1, B7 Homolog 3 (B7H3) on B78 melanoma tumor cells.
T1 construct: whole, on cells; In the PET study, tumours that were B7H3-positive and GD2-negative were also used; also called CD276; Cluster of Differentiation 276
Briefly: cell binding, RFU, B7H3 B78 cells (GD2 and human B7H3); both arms can bind.

The target in experiment [2] is T2, B7H3 (antigen of the 'B7H3 Octet' value).
T2 construct: antigen of the Octet measurement
T2 sequence (Q5ZPR3 whole entry, species assumed, looked up): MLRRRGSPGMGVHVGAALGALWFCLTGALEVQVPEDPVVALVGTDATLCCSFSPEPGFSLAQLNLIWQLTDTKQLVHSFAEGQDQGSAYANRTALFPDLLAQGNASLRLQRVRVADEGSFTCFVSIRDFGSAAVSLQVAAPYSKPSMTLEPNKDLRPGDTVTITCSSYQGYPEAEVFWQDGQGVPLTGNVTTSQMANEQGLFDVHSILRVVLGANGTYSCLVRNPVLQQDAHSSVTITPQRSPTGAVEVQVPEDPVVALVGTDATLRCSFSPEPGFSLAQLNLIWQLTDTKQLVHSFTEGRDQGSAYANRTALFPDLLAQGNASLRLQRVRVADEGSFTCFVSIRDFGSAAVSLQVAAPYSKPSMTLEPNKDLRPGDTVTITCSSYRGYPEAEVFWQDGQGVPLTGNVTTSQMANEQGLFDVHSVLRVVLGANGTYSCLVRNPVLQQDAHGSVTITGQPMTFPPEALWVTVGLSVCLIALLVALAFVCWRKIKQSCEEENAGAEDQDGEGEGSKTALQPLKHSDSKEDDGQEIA
The experiment in a line: Octet, monovalent affinity of the B7H3 arm; construct measured and form of B7H3 not given. A general note: BLI is a label-free optical method that tracks binding on a fibre tip over time.

Experiment [3] has as its target T3, mB7H3 (endogenous mouse B7H3 on B16 and B78 cells) (mouse, UniProt Q8VE98).
T3 construct: B78 also carries GD2; also called murine B7H3
T3 sequence (receptor, looked up): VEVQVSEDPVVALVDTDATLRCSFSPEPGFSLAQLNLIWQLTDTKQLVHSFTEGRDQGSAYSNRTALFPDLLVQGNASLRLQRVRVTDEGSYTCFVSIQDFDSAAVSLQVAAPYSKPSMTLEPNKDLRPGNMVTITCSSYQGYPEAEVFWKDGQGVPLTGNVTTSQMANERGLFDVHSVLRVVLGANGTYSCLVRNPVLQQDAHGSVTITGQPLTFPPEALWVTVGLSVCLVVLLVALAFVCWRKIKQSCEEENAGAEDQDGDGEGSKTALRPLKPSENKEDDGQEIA
Briefly: flow cytometry on B16 cells (no GD2, mouse B7H3), GAH PE; anti-GD2 antibody as control.

B1: INV721 (bivalent bispecific anti-B7H3 x anti-GD2 antibody) (bispecific antibody, V domains shown)
VL 1: DIQMTQSPSSLSASVGDRVTITCRASQSVSSAVAWYQQKPGKAPKLLIYSASSLYSGVPSRFSGSRSGTDFTLTISSLQPEDFATYYCQQSGRSLYTFGQGTKVEIK
VH 1: EVQLVESGGGLVQPGGSLRLSCAASGFTFSTYYIHWVRQAPGKGLEWVAWIHPSGKYTYYADSVKGRFTISADTSKNTAYLQMNSLRAEDTAVYYCARHYQVGAMDYWGQGTLVTVSS
VL 2: DIQMTQSPSSLSASVGDRVTITCRSSQSLVHRNGNTYLHWYQQKPGKAPKLLIHKVSNRFSGVPSRFSGSGSGTDFTLTISSLQPEDFATYYCSQSTHVPPLTFGQGTKVEIK
VH 2: EVQLVESGGGLVQPGGSLRLSCAASGSSFTGYNMNWVRQAPGKGLEWVAAIDPYYGGTYYADSVKGRFTISADTSKNTAYLQMNSLRAEDTAVYYCASGMEYWGQGTLVTVSS
modifications: 89Zr-radiolabelled in the PET and biodistribution studies. An a-fucosylated version is used in FIG. 66.
notes: 89Zr-labelled in the in vivo PET study; also called I7-01/GD2-5/7; I7-01/GD2-7
With B1, the EC50 (usually the concentration at which the effect is half-maximal) in experiment [1] is 0.35 nM and 0.357 nM. Further, the Kd (usually the concentration at which binding is half-saturated) in experiment [2] worked out at 2.4 nM.

B2: Invenra GD2-5 (antibody, V domains shown)
VH: B1 VH 2
VL: B1 VL 2
notes: anti-GD2 antibody; stands here only as a control on B16 cells; also called GD2-05; anti-GD2 monoclonal antibody GD2-5
Regarding B2, in experiment [3], the binding result is reported as “no binding (tested: 1 ug antibody per million cells)”.
